For the data set, the system named is T1, OhsR-SSM (S-mycothiolated OhsR) (Corynebacterium glutamicum), ORF:a3d30e29.
T1 sequence: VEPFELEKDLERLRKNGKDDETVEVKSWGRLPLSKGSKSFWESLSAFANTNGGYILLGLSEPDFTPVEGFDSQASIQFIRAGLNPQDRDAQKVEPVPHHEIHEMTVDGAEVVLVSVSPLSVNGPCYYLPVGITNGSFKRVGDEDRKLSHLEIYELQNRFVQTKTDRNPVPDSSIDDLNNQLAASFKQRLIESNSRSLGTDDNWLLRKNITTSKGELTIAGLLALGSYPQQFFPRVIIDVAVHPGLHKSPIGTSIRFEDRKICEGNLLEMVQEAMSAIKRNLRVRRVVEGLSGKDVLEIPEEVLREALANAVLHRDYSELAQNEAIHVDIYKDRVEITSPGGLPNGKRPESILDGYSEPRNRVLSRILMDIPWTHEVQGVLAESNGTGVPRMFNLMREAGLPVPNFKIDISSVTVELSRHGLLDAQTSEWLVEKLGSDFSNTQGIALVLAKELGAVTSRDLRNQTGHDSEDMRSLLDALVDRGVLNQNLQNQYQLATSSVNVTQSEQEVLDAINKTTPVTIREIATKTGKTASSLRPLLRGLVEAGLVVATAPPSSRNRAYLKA
Description: EMSA. The conditions noted are these: EMSA: 20 mM Tris-HCl pH 7.4, 4 mM MgCl2, 100 mM NaCl, 10% glycerol, room temperature 30 min; 20 ng DNA, 0-4 ug OhsR; 6% native PAGE, 0.5x TBE, SYBR Green. In general terms: Mobility shift assays separate free from complexed probe on a gel.

Results on one sequence are retold here after PMC6306002.

Consider “CACCTTGTTGGTGGGCCGGGATTTTTGTTGTTTAGATTTTTGAAAGCACACTTTTGTCCCTTAACTAGTGCGTGTGTACATTCGACACCAAGATTTGGGCAATATGGTGCCCAAAATCAGGAAATCTTGCTGTCTAATGCACAACGGAAAACTGCTCACGGACGAACTAGTTGTAGCGAGCGTATTCTTTGTGTTCTCTC (double strand) [Pohr (ohr promoter, 200 bp)]”, for which the binding entry was “binds”.
